NHDF cells IL-13 Eotaxin release (IC50) [on average] and Kd data for one molecule are collected here from patent publication US20090285799A1.

The target of assay [1] is T1, human IL-13Rα1 on normal human dermal fibroblast (NHDF) cells (human) (UniProt P78552).
T1 sequence: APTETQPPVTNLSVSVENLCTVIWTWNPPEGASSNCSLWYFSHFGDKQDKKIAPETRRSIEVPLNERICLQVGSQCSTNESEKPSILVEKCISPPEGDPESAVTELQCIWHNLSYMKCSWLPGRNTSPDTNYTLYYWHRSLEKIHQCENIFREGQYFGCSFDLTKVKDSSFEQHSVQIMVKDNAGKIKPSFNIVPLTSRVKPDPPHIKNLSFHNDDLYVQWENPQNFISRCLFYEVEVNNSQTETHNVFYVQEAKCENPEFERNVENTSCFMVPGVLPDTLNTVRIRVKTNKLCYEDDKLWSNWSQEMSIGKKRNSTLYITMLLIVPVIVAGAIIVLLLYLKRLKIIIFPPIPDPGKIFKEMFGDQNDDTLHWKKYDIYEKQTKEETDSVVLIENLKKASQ
The assay is described as follows: cell-based or functional assay.

The target in assay [2] is T2, hIL-13Rα1.ECR (N-terminal FLAG-tagged fusion protein of the extracellular region of human IL-13Rα1) (human) (UniProt P78552).
T2 sequence: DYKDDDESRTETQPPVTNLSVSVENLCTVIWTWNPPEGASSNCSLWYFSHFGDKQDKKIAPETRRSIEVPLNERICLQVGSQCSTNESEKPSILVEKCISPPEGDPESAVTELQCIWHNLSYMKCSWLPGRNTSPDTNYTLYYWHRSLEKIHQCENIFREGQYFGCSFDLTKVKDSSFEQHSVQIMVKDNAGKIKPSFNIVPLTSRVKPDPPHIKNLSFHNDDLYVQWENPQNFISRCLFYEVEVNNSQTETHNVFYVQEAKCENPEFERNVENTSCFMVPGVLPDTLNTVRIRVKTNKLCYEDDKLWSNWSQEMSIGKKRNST
The assay is described as follows: ELISA on plate-bound hIL-13Rα1.ECR. (In general: In an ELISA, binding on a coated surface is turned into a signal by an enzyme label.)

Assay [3] has as its target T2, hIL-13Rα1.ECR (N-terminal FLAG-tagged fusion protein of the extracellular region of human IL-13Rα1) (human). Put plainly: BIACORE SPR, hIL-13Rα1.ECR immobilized on CM5 chip, antibody as analyte, bivalent model. For orientation: SPR reads the build-up and loss of mass on a sensor chip optically.

B1: 4A10 (antibody, part only; not given: light chain, V domains shown, part only)
VH: QVQLVESGGGVVQPGRSLRLSCAASGFTFSNYGMHWVRQAPGKGLEWVAAIWYDGSDKNYADSVKGRVTISRDTSKKTLYLQMNSLRAEDTAIYYCAREITIMRGLIKNYYYYGMDVWGQGTTVTVSS
B1: in assay [1], the NHDF cells IL-13 Eotaxin release (IC50) [on average] came to 0.35 µg/mL. For the same molecule, the values for the Kd in assay [2] and in assay [3] were 1.2 nM and 5.8 nM, respectively.
